B1: Zinc finger homeobox protein 4, residues 2086 to 2141; numbered along this chain, Q86UP3 (parent)
chain: RPRTRITDDQLKILRAYFDINNSPSEEQIQEMAEKSGLSQKVIKHWFRNTLFKERQ

Variants of: B1
Experiment: abundance fitness (aPCA) (normalised: wild type 0, dead -1); higher = more abundant; growth selection in yeast, the domain comes from the species named
Conditions: Homo sapiens

Abundance fitness of substitutions, site by site:
S39: L -0.767 | P -0.115 | A -0.163 | G -0.227 | F -0.323 | R 0.007 | W -1.16 | E 0.127 | K 0.081 | C -0.395 | M 0.217 | T -0.135 | Y -0.14
K41: V -0.124 | S -0.141 | C 0.032 | T -0.093 | F -0.02 | M -0.146 | A -0.136 | I -0.106 | W -0.123 | H 0.033 | L -0.174 | D 0.183 | P -0.307 | E -0.043 | N -0.393 | Q -0.235 | G -0.042
I43: V -0.073 | Y -0.8 | G -1.24 | S -0.994 | F -0.607 | L -0.195 | M -0.541 | P -1.09 | N -1.02 | E -0.946 | K -1.19 | W -0.928 | H -1.05 | Q -1.02 | D -0.876 | C -0.367 | A -0.488
S36: P -0.874 | Y -0.267 | R -0.533 | W -0.42 | N -0.374 | Q -0.342 | M -0.213 | L -0.214 | T -0.108
L38: V -0.117 | A -0.06 | C -0.11 | I -0.217 | N -0.769 | R -0.746 | D -0.765 | K -0.938 | E -0.557 | Q -0.349 | W -0.666 | P -0.982 | F -0.793 | M -0.011 | Y -0.419 | T -0.279 | S -0.545
V42: D 0.093 | P -0.478 | Q -0.037 | H -0.069 | E 0.031 | F 0.007 | W -0.112 | Y -0.065 | T -0.057 | K -0.079 | I -0.057 | G -0.077 | L -0.085 | N -0.212 | A 0.012 | C -0.002 | R 0.086 | S -0.059 | M -0.021
G37: A -0.164 | P -0.805 | K -0.054 | D -0.07 | L -0.014 | W -0.535 | M -0.06 | V -0.378 | C -0.132 | S -0.15 | Y -0.429 | E -0.092 | T -0.083 | N 0.032 | I -0.602 | H -0.137 | Q -0.052 | F -0.46 | R -0.032
H45: D 0.006 | L -0.042 | Q -0.006 | N -0.061 | R 0.08 | I -0.114 | P -0.207 | V -0.059 | G -0.029 | E 0.09 | K 0.038 | S -0.004 | M -0.059 | T 0 | C -0.181 | A -0.018 | F -0.082 | W 0.023
K44: M -0.098 | S -0.069 | G 0.001 | T -0.017 | L -0.204 | W -0.312 | Q -0.362 | P -0.716 | V -0.186 | F -0.023 | H -0.042 | N -0.042 | C -0.204 | A 0.038 | D 0.068 | E -0.031 | R -0.01 | I -0.25 | Y 0.049
Q40: P -0.114 | E -0.253 | K 0.082 | I -0.091 | C -0.1 | M 0.03 | Y -0.157 | N -0.217 | R -0.062 | H -0.172 | D -0.232 | S -0.115 | A -0.14 | F 0.038 | G -0.173 | L -0.003 | T -0.188 | W -0.11 | V -0.098
